Data from publication PMC2132594.

Target: human erythrocyte spectrin (heterodimer of α and β chains) (human) (UniProt P02549)
Assay: single-particle fluorescence imaging
Details: remark: other sources report otherwise

- percent of spots in the second peak (tetramers): 40%
- percent of the total spectrin in the second peak (tetramers): 59%
Substance: human erythrocyte spectrin (heterodimer of α and β chains), P02549 1-2419; P11277 1-2137
